Results from patent publication US9885687B2, “Apparatus and method for evaluating characteristics of target molecules” (Dynamic Biosensors GmbH, priority 2010, dated 2018).

Experiment: voltage response curve (normalized fluorescence versus static substrate potential) to determine target charge
Format: physicochemical
Conditions: protein bound to probe DNA
Source text: Note that so far no time dependence has been introduced, since the electric field has been kept stationary. However, with the above equation, it is possible to calculate the fluorescence signal for different values of the applied static potential Φ. The corresponding curve is referred to as “voltage response curve” in the following.
Further note that the model so far only accounted for the free probe molecule, i.e. the double-stranded DNA, but not for any target molecule. As long as the stationary state is concerned, i.e. without a time-dependent electrical field, the target molecule will mainly affect the results due to a possible charge thereof. In fact, based on the above understanding of the stochastic behaviour of the probe molecule, the inventors conjectured that it should be possible to qualitatively and quantitatively determine the charge of the target molecule from the voltage response curve.
The corresponding voltage response curve is shown by filled circles, while the voltage response curve of the free DNA is again shown by open diamonds. It can be seen that the voltage response curve in presence of the avidin also differs noticeably from that of the DNA alone.

Substance | charge of the target molecule
streptavidin: negatively charged protein bound to the probe DNA | negatively charged
avidin: positively charged protein bound to the probe DNA | positively charged
